In patent publication US20090263323A1:

Biological target: NADPH oxidase 3 (NOX3)
Assay: cell-based or functional assay

PMA-induced superoxide generation of NOX3 (co-transfected HEK293 cells): 2 fold
Substance: p67^phox/NOXA2
